Test [1] deals with mouse serum albumin (mouse) (UniProt P07724). The test is described as follows: SPR (Biacore), purified construct.
Test [2] has as its target human serum albumin (human) (UniProt P02768). The test is described as follows: SPR (BIAcore).

In patent US20110184152A1 one finds Kd, koff and kon data, which are given here for two molecules.

B1: FabB-648dsFv (2xG4S) (bispecific antibody, part only; not given: anti-OX40 Fab and linkers, V domains shown, not shown: another chain or arm of the molecule; a dimerising Fc or GST; small tags and cut ends)
VH: EVQLVESGGGLVQPGGSLRLSCAVSGFSLSRYAMTWVRQAPGKCLEWIGTITTGGNTNYANWAKGRFTISKDSTTVYLQMNSLRAEDTAVYYCARGGYVSYADATELSLWGQGTLVTVSS
VL: DIVMTQSPSTLSASVGDRVTITCQASQSIGSRLAWYQQKPGKAPKLLIYYASTVASGVPSRFKGSGSGTEFTLTISSLQPDDFATYYCQSYDYSSSSSYAFGCGTKVEIK
modifications: Engineered interchain disulphide between VH Cys44 and VL Cys100 (Kabat; linear position 103 of the VL).
Molecule B1 came in with a Kd in test [1] of 59.6 nM.

B2: FabB-645dsFv (S3×G4S), Fv heavy mutation T100aA (bispecific antibody, part only; not given: anti-OX40 Fab and linkers, V domains shown, not shown: another chain or arm of the molecule; small tags and cut ends)
VH: EVQLLESGGGLVQPGGSLRLSCAVSGIDLSNYAINWVRQAPGKCLEWIGIIWASGTTFYATWAKGRFTISRDSTTVYLQMNSLRAEDTAVYYCARTVPGYSAAPYFDLWGQGTLVTVSS
VL: DIVMTQSPSSVSASVGDRVTITCQSSPSVWSNFLSWYQQKPGKAPKLLIYEASKLTSGVPSRFKGSGSGTDFTLTISSLQPEDFATYYCGGGYSSISDTTFGCGTKVEIK
modifications: Interchain disulfide between VH Cys44 and VL Cys100 (Kabat) of the dsFv
In test [2], B2 returned a Kd of 51.6 nM, a koff of 0.0186 s⁻¹ and a kon of 360000 M⁻¹ s⁻¹.

By Kd is commonly meant a measure of binding affinity in units of concentration. The koff is a measure of how fast the partners let go of each other. Higher therefore signals fast dissociation. The term kon denotes a measure of how fast the partners come together.
